Assay results reported in paper PMC9261936 (Biochemistry, 2022).
Primed or numbered codes have the meaning given here. *: point of attachment. FITC = O=C1OC2(c3ccc(O)cc3Oc3cc(O)ccc32)c2ccc(NC(=S)*)cc21; Dnp′ = not defined here; CH2Cl = ClC*

Columns and labels:
[1] = molecular target: T1, SaPrp (Staphylococcus aureus, UniProt Q2FXS9, N63Q); assay: Michaelis–Menten steady-state kinetics, cleavage of FITC-[…]-Dnp; format: biochemical
T1 sequence (Q2FXS9 1-106 N63Q): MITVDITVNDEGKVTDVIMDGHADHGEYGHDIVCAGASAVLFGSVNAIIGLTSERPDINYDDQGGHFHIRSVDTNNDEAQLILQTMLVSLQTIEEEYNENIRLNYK

[2] = molecular target: T1, SaPrp; format: biochemical; conditions: compound at 100 μM, FITC-conjugated peptide
[3] = test system: SaPrp; assay: Covalent complex formation with SaPrp, mass spectrometry; format: biochemical, Staphylococcus aureus; conditions: 2.6-fold molar excess over SaPrp, 1 h, room temperature
[4] = other cysteine proteases, means and standard deviations; cited from earlier work

FITC-KLNLQFFASKK-Dnp ({FITC}-KLNLQFFASKK-{Dnp′}) [Compound 1]
Vmax ([1]; FITC-KLNLQFFASKK-Dnp substrate 0.2–20 μM, 48.2 nM SaPrp (monomer)): 11 ± 4.0 nM/s
kcat ([1]; FITC-KLNLQFFASKK-Dnp substrate, ET constrained to 42.8 nM active sites): 0.26 ± 0.05 s^–1

COC([CH2][Hg+])CNC(=O)c1ccccc1OCC(=O)O.[OH-] (stereo not drawn) [Compound 4, Mersalyl Acid]
Inhibition of Prp at 100 μM [2]: Prp could not cleave the peptide

acetyl-KLNLQFF-chloromethylketone (Ac-KLNLQFF-CH2Cl; SMILES CC(=O)N[C@@H](CCCCN)C(=O)N[C@@H](CC(C)C)C(=O)N[C@@H](CC(N)=O)C(=O)N[C@@H](CC(C)C)C(=O)N[C@@H](CCC(N)=O)C(=O)N[C@@H](Cc1ccccc1)C(=O)N[C@@H](Cc1ccccc1)C(=O)CCl) [Ac-KLNLQFF-CMK]
Formation of the covalent complex with SaPrp [3]: > 95%

B1: μ-calpain: literature comparator cysteine protease (protein, UniProt P07384 2-714; P04632 1-268, looked up)
Calpain-1 catalytic subunit: SEEIITPVYCTGVSAQVQKQRARELGLGRHENAIKYLGQDYEQLRVRCLQSGTLFRDEAFPPVPQSLGYKDLGPNSSKTYGIKWKRPTELLSNPQFIVDGATRTDICQGALGDCWLLAAIASLTLNDTLLHRVVPHGQSFQNGYAGIFHFQLWQFGEWVDVVVDDLLPIKDGKLVFVHSAEGNEFWSALLEKAYAKVNGSYEALSGGSTSEGFEDFTGGVTEWYELRKAPSDLYQIILKALERGSLLGCSIDISSVLDMEAITFKKLVKGHAYSVTGAKQVNYRGQVVSLIRMRNPWGEVEWTGAWSDSSSEWNNVDPYERDQLRVKMEDGEFWMSFRDFMREFTRLEICNLTPDALKSRTIRKWNTTLYEGTWRRGSTAGGCRNYPATFWVNPQFKIRLDETDDPDDYGDRESGCSFVLALMQKHRRRERRFGRDMETIGFAVYEVPPELVGQPAVHLKRDFFLANASRARSEQFINLREVSTRFRLPPGEYVVVPSTFEPNKEGDFVLRFFSEKSAGTVELDDQIQANLPDEQVLSEEEIDENFKALFRQLAGEDMEISVKELRTILNRIISKHKDLRTKGFSLESCRSMVNLMDRDGNGKLGLVEFNILWNRIRNYLSIFRKFDLDKSGSMSAYEMRMAIESAGFKLNKKLYELIITRYSEPDLAVDFDNFVCCLVRLETMFRFFKTLDTDLDGVVTFDLFKWLQLTMFA
Calpain small subunit 1: MFLVNSFLKGGGGGGGGGGGLGGGLGNVLGGLISGAGGGGGGGGGGGGGGGGGGGGTAMRILGGVISAISEAAAQYNPEPPPPRTHYSNIEANESEEVRQFRRLFAQLAGDDMEVSATELMNILNKVVTRHPDLKTDGFGIDTCRSMVAVMDSDTTGKLGFEEFKYLWNNIKRWQAIYKQFDTDRSGTICSSELPGAFEAAGFHLNEHLYNMIIRRYSDESGNMDFDNFISCLVRLDAMFRAFKSLDKDGTGQIQVNIQEWLQLTMYS
kcat [4]: 0.015 ± 0.002 s^–1

B2: papain: literature comparator cysteine protease (protein, UniProt P00784 134-345, looked up)
Papain: IPEYVDWRQKGAVTPVKNQGSCGSCWAFSAVVTIEGIIKIRTGNLNEYSEQELLDCDRRSYGCNGGYPWSALQLVAQYGIHYRNTYPYEGVQRYCRSREKGPYAAKTDGVRQVQPYNEGALLYSIANQPVSVVLEAAGKDFQLYRGGIFVGPCGNKVDHAVAAVGYGPNYILIKNSWGTGWGENGYIRIKRGTGNSYGVCGLYTSSFYPVKN
kcat [4]: 0.0162 ± 0.000135 s^–1
